Assay results taken from US20240398804.

Target: YAP1 Y357F (UniProt P46937)

Substance	YAP1 tyrosine phosphorylation (immunoprecipitation, immunoblot)
WT SRC (expressed from plasmid in 293T cells)	Under conditions where YES1 or SRC phosphorylated YAP1, we failed to detect phosphorylation of the YAP1 Y357F mutant
YES1 (Yamaguchi sarcoma viral oncogene homolog 1)	Under conditions where YES1 or SRC phosphorylated YAP1, we failed to detect phosphorylation of the YAP1 Y357F mutant
